Three molecules from article PMC2816676, “DNA Binding of Centromere Protein C (CENPC) Is Stabilized by Single-Stranded RNA” can be followed below.

For series [1], the target named is T1, CENPC full length (Zea mays) (UniProt Q9XHE1).
T1 sequence: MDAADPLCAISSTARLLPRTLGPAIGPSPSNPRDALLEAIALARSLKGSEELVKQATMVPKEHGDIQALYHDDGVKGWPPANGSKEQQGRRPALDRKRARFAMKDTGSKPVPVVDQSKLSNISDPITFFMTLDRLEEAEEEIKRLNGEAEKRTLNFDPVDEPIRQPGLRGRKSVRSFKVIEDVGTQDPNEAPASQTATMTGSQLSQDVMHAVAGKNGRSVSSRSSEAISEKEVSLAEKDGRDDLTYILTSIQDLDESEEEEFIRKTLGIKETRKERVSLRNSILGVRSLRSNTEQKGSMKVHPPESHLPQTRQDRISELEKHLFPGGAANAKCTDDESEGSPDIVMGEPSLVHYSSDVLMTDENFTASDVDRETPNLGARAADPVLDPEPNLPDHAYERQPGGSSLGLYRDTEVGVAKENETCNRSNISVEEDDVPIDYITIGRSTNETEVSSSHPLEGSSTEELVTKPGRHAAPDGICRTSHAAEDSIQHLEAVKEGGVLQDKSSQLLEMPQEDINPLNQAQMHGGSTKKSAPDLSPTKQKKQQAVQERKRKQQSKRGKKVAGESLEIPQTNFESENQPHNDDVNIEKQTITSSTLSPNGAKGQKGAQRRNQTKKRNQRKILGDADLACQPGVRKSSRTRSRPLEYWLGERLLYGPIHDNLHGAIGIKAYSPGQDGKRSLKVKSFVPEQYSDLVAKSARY
Briefly: EMSA. The conditions noted are these: 10 mM Tris pH 7.5, 50 mM NaCl, 0.5 mM DTT, 0.5 mM EDTA, 1 mM MgCl2, 4% glycerol, 20 µl, on ice 20 min; 5% PAGE.

The target of series [2] is HIV integrase DNA-binding domain (IntBD) (HIV, UniProt Q9WJL1 220-270). Briefly: EMSA; no RNA; 10 mM Tris pH 7.5, 50 mM NaCl, 0.5 mM DTT, 0.5 mM EDTA, 1 mM MgCl2, 4% glycerol, 20 µl, on ice 20 min; 5% PAGE. Particulars: chain copies: 2; blunt. For orientation: In EMSA bound probe runs differently from free probe, usually more slowly.
The target in a further series is T2, CENPC exon 1-5.7 (Zea mays, UniProt Q9XHE1 1-399).
T2 sequence: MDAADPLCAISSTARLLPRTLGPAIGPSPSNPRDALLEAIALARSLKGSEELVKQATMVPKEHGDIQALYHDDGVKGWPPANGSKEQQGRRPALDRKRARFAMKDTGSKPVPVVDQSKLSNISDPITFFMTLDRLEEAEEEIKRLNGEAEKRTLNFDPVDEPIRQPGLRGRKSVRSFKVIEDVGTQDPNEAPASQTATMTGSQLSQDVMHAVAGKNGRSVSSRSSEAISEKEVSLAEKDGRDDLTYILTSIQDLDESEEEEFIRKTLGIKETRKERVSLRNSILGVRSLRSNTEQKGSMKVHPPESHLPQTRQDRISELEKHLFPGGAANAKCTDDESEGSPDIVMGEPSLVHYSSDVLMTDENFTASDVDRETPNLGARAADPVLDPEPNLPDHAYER
Put plainly: EMSA; 10 mM Tris pH 7.5, 50 mM NaCl, 0.5 mM DTT, 0.5 mM EDTA, 1 mM MgCl2, 4% glycerol, 20 µl, on ice 20 min; 5% PAGE. The conditions noted are these: protein: recombinant; tags: His (pET28a); blunt.

The target of a further series is T3, CENPC Δexon 9-12 (Zea mays, UniProt Q9XHE1 1-701, del503-624).
T3 sequence: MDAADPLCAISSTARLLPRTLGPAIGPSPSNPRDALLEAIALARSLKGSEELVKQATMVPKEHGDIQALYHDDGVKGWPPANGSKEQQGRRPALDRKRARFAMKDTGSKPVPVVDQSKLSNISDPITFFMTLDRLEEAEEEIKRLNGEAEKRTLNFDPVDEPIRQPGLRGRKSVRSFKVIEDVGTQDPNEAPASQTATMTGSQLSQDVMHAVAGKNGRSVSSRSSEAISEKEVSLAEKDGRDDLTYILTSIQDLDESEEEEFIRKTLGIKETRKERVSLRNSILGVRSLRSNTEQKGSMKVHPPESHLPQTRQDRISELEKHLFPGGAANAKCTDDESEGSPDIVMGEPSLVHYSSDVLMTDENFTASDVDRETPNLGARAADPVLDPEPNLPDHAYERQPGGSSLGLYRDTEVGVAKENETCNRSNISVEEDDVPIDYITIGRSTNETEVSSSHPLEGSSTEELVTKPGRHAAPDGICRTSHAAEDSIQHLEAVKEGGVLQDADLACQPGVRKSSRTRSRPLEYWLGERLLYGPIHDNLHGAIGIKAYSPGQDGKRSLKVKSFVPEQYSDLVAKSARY
Described as above. Particulars: protein: recombinant; tags: His (pET28a); blunt.

In another series the target is T4, CENPC exon 1-8 (Zea mays, UniProt Q9XHE1 1-502).
T4 sequence: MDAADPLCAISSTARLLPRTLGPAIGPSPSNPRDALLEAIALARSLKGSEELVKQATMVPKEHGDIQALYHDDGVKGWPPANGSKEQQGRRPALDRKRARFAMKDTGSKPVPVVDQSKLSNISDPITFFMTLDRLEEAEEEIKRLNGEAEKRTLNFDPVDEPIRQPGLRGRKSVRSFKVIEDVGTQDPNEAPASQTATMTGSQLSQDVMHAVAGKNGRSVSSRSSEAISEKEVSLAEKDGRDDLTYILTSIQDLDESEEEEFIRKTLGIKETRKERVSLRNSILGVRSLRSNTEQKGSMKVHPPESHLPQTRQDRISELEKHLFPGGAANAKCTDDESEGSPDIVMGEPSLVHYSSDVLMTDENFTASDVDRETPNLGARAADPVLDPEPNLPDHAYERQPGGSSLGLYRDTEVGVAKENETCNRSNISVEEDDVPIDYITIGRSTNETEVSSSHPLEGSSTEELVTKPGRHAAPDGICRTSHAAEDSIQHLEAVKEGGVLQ
Described as above. Particulars: protein: recombinant; tags: His (pET28a); blunt.

As for CentC 156 bp DSDNA, in series [1], the binding signal was 95.9 % bound.
On the same count and under the same terms, the same measure for CentC 67 bp DSDNA: 85.3 % bound.

B1: CentC 44 bp DSDNA (dsDNA)
DNA 1: AATGGGTGACGTGCGGCAACGAAATTGCGCGAAACCACCCCAAA
DNA 2: TTTGGGGTGGTTTCGCGCAATTTCGTTGCCGCACGTCACCCATT
On to B1, for which the binding result in series [2] was “binds”; in the series with CENPC exon 1-5.7, “no binding”; in the series with CENPC Δexon 9-12 it was “no binding”; in the series with CENPC exon 1-8, “no binding”.
